Consider one substance from paper PMC8326573.

For this test, the target named is C. trachomatis PmpD fragment D^269–918, His-tagged (C. trachomatis serovar E) (UniProt O84818). The experiment in a line: native gel or EMSA; Blue Native-PAGE (Native PAGE Novex 3–12% Bis-Tris), 1 μg of each renatured His-tagged Pmp fragment alone; Coomassie staining and anti-His immunoblot. On the technique in general: Mobility shift assays separate free from complexed probe on a gel.

As usually defined, the stoichiometry N is the number of molecules, sites or subunits per partner or assembly. As for “C. trachomatis PmpD fragment D^269–918, His-tagged (from UniProt O84818 269-918) (domain or fragment)”, the stoichiometry N was determined as 2.
